According to paper PMC10471779, “Antibody-mediated neutralization of galectin-3 as a strategy for the treatment of systemic sclerosis” (Nature Communications, 2023):
Numbering of substitutions follows the chain as printed.

B1: D11 anti-Gal-3 monoclonal antibody (hIgG1 format, LALA) (antibody, V domains shown)
VH: EVQLVESGGSLVKPGGSLRLSCAASGFTFSNYNMNWVRQAPGKGLEWISSIYGSSRYIYYADFVKGRFTISRDNAKNSLYLQMNSLRAEDTAVYYCVRSSYGGMDVWGRGTLVTVSS
VL: QSVLTQPASVSGSPGQSITISCAGTSSDVGGSYNVAWYQQHPGKAPKLMIYYDSYRPSGVSNRFSGSKSGNTASLTISGLQAEDEADYYCSSYTGYSTRVFGGGTKLEIK
notes: from scFv D11 (HuscI library, human framework 13R4); human IgG1 heavy-chain constant region, engineered with the double LALA mutation in the Fc region; IgG1 with LALA; also called D11 mAb; source: CHO-K1 cells (Evitria), transfected, purified (protein A, MabSelect SuRe)
B2: E07 anti-Gal-3 monoclonal antibody (antibody, V domains shown)
VH: B1 VH with S50N, S100Y
VL: B1 VL with S32Y, N34S, A36S, Y55N
notes: human IgG1, LALA; also called E07 mAb; source: CHO-K1 cells (Evitria), purified (protein A, MabSelect SuRe)
B3: D11 anti-Gal-3 monoclonal antibody (antibody, V domains shown)
VH: B1 VH
VL: B1 VL
notes: human IgG1, LALA; also called D11 mAb; source: CHO-K1 cells (Evitria), purified (protein A, MabSelect SuRe)
B4: E07 anti-Gal-3 monoclonal antibody (hIgG1 format, LALA) (antibody, V domains shown)
VH: B1 VH with S50N, S100Y
VL: B1 VL with S32Y, N34S, A36S, Y55N
notes: from scFv E07 (HuscI library, human framework 13R4); human IgG1 heavy-chain constant region, engineered with the double LALA mutation in the Fc region; IgG1 with LALA; also called E07 mAb; source: CHO-K1 cells (Evitria), transfected, purified (protein A, MabSelect SuRe)

What was measured:
Conditions in all cases: both partners purified
human galectin-14 = target: T1, human galectin-14 (Homo sapiens, UniProt Q8TCE9); test: ELISA; dose-response binding ELISA, IgG 0.0009 to 500 nM on immobilised hGal-3-FL and mGal-3-FL (hGal-14 in Supplementary Fig. 7b); detection by anti-hFab-HRP
T1 construct: galectin-14, human; also called hGal-14; Gal-14; source: bought: Novus Biologicals NBP1-50082
T1 sequence (Q8TCE9 whole entry): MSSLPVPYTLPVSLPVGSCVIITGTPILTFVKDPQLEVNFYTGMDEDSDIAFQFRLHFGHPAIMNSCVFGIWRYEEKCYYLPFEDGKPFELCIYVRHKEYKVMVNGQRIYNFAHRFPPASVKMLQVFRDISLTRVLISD

[1] = target: T2, recombinant human galectin-3, full length, His-tagged (hGal-3-FL-His Nter) (Homo sapiens, UniProt P17931); test: as above
T2 construct: galectin-3, human, full length; the SPR methods say only recombinant Gal-3 (Novalix); also called FL hGal-3; FL-Gal-3; source: recombinant, produced by Novalix (Illkirch, France); not shown: His, N-terminal, kept
T2 sequence (P17931 whole entry): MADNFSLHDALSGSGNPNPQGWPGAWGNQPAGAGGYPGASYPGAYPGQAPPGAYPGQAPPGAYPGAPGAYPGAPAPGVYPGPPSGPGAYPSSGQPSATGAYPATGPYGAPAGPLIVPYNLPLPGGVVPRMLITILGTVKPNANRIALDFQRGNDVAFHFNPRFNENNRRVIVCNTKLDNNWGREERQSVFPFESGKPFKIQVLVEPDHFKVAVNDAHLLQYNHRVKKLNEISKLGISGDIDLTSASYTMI

[2] = target: T3, recombinant mouse galectin-3, full length, His-tagged (mGal-3-FL-His Nter) (Mus musculus, UniProt P16110); test: as above
T3 construct: galectin-3, mouse, full length; source: recombinant, produced by Novalix (Illkirch, France); not shown: His, N-terminal, kept
T3 sequence (P16110 whole entry): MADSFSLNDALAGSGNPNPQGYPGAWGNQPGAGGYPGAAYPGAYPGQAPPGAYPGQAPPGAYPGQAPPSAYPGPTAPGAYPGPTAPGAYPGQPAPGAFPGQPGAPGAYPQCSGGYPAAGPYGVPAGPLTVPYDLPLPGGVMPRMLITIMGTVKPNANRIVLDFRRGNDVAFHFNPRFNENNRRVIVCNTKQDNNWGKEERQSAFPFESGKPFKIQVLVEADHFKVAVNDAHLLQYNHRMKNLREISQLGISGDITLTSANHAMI

[3] = target: T3, recombinant mouse galectin-3, full …; test: SPR; Biacore T-200, mAb captured on anti-human Fc CM5 surface, Gal-3 0.5 to 50 nM injected, single-cycle kinetics, HBS-P (10 mM HEPES, 150 mM NaCl, 0.05% P20), 25 C, 1:1 Langmuir fit
[4] = target: T4, recombinant human galectin-3 carbohydrate recognition domain, His-tagged (hGal-3-CRD-His Nter) (human, UniProt P17931); test: ELISA; competition ELISA: hGal-3-CRD coated at 1 ug/mL, IgG 0.0006 to 780 nM for 1 h, washed, then asialofetuin at 8 ug/mL for 30 min; bound asialofetuin detected by HRP-labelled anti-asialofetuin antibody
T4 construct: galectin-3, human, carbohydrate recognition domain; also called CRD of hGal-3; source: recombinant, produced by Novalix (Illkirch, France); not shown: His, N-terminal, kept
T4 sequence (P17931 114-250): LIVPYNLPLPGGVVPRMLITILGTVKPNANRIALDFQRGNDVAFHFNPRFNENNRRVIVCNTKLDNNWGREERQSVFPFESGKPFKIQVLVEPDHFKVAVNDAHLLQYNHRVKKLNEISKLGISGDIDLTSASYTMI

[5] = target: T5, recombinant dog galectin-3 carbohydrate recognition domain (Canis lupus familiaris, UniProt P38486); test: SPR; Biacore T-200; mAb captured (400-680 RU) on a CM5 chip with immobilised anti-human Fc mAb; Gal-3 0.5-50 nM injected, single-cycle kinetics, 210 s association, 600 s dissociation, 30 uL/min; HBS-P (10 mM HEPES, 150 mM NaCl, 0.05% P20), 25 °C; 1:1 Langmuir fit; duplicates
T5 construct: galectin-3 (Gal-3), dog, carbohydrate recognition domain; also called dog Gal-3 (CRD); source: recombinant, Novalix

[6] = target: T6, recombinant human galectin-3, full-length (Homo sapiens, UniProt P17931); test: as above
T6 construct: galectin-3 (Gal-3), human, full-length; the His tag is named for the Novalix protein in the ELISA methods; the SPR methods say only 'recombinant Gal-3 from multiple species (Novalix)'; also called human Gal-3 (FL); hGal-3 (FL); source: recombinant, produced by Novalix
T6 sequence (P17931 whole entry): as the sequence (P17931 whole entry) above

[7] = target: T7, recombinant rat galectin-3 carbohydrate recognition domain (Rattus norvegicus, UniProt P08699); test: as above
T7 construct: galectin-3 (Gal-3), rat, carbohydrate recognition domain; also called rat Gal-3 (CRD); source: recombinant, Novalix

[8] = target: T8, recombinant mouse galectin-3, full-length (Mus musculus, UniProt P16110); test: as above
T8 construct: galectin-3 (Gal-3), mouse, full-length; the His tag is named for the Novalix protein in the ELISA methods; the SPR methods say only 'recombinant Gal-3 from multiple species (Novalix)'; also called mouse Gal-3 (FL); mGal-3 (FL); source: recombinant, produced by Novalix
T8 sequence (P16110 whole entry): as the sequence (P16110 whole entry) above

[9] = target: T9, recombinant human galectin-3 carbohydrate recognition domain (Homo sapiens, UniProt P17931); test: as above
T9 construct: galectin-3 (Gal-3), human, carbohydrate recognition domain; the His tag is named in the ELISA methods, not in the SPR methods; also called hGal-3 (CRD); hGal-3-CRD-His Nter; source: recombinant, produced by Novalix

Row | Binder | EC50 (human galectin-14) | EC50 [1] | EC50 [2] | Kd [3] | IC50 [4] | Kd [5] | koff [5] | kon [5] | Kd [6] | koff [6] | kon [6] | Kd [7] | koff [7] | kon [7] | Kd [8] | koff [8] | kon [8] | Kd [9] | koff [9] | kon [9]
1 | B1 | 59.9 nM | 0.37 nM | 0.99 nM | < 5 nM | 2.18 nM | – | – | – | – | – | – | – | – | – | – | – | – | – | – | –
2 | B2 | – | – | – | – | – | 21.5 nM | 0.016 s⁻¹ | 746000 M⁻¹ s⁻¹ | 9 nM | 0.0292 s⁻¹ | 3.24e+06 M⁻¹ s⁻¹ | 15 nM | 0.0497 s⁻¹ | 3.31e+06 M⁻¹ s⁻¹ | 4.14 nM | 0.00407 s⁻¹ | 983000 M⁻¹ s⁻¹ | 14.4 nM | 0.0377 s⁻¹ | 2.61e+06 M⁻¹ s⁻¹
3 | B3 | – | – | – | – | – | 24.7 nM | 0.0235 s⁻¹ | 948000 M⁻¹ s⁻¹ | 14.9 nM | 0.0247 s⁻¹ | 1.66e+06 M⁻¹ s⁻¹ | 8.55 nM | 0.018 s⁻¹ | 2.11e+06 M⁻¹ s⁻¹ | 2.8 nM | 0.00178 s⁻¹ | 635000 M⁻¹ s⁻¹ | 26.4 nM | 0.0428 s⁻¹ | 1.62e+06 M⁻¹ s⁻¹
4 | B4 | 90.6 nM | 0.07 nM | 0.3 nM | < 5 nM | 1.5 nM | – | – | – | – | – | – | – | – | – | – | – | – | – | – | –
